The target in the experiment is human CD40 on cells (human) (UniProt P25942). Kind of experiment: FACS, inhibition of human CD40L-his binding to CHO-K1/hCD40 cells. For orientation: A flow cytometer gives signals particle by particle.

These results are taken from patent publication US20250215100A1.

Sequence of human CD40 on cells (human) (P25942 21-277): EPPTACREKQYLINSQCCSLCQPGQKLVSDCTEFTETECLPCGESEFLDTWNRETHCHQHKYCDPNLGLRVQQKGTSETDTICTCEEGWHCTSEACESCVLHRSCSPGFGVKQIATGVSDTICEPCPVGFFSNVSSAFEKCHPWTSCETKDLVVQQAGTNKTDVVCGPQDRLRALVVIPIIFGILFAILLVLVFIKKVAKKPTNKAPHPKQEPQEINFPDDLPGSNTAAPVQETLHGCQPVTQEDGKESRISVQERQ

hIgG1 (antibody) returned a Maximum inhibition rate (%) of 2.3%.
